Measured values published in patent US20180155451A1 (published 2018).

Tests used:
[1] = molecular target: T1, FcγRIa extracellular domain with C-terminal His tag (human, UniProt P12314 16-292); experiment: SPR (Biacore), antibody captured via antigen peptide, FcγR as analyte; binding relative to GpH7-A5/GpH7-B3/GpL16-k0 = 100
T1 construct: extracellular domain; Soluble receptor expressed in FreeStyle293 cells, used as analyte in Biacore; also called FcgRI; CD64; not shown: His tag at the C terminus
T1 sequence (P12314 16-292): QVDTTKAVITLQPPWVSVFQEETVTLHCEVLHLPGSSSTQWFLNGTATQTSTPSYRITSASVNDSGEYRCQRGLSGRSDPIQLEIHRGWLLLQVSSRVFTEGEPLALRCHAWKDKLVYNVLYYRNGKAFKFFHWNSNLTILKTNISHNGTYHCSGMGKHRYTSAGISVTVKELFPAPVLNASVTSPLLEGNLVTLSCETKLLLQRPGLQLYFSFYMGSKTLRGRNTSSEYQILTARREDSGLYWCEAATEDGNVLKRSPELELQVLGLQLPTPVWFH

[2] = molecular target: T2, FcγRIIb extracellular domain with C-terminal His tag (human, UniProt P31994 43-217); experiment: as above
T2 construct: extracellular domain; Soluble receptor expressed in FreeStyle293 cells, used as analyte in Biacore; also called FcgRIIb; CD32B; not shown: His tag at the C terminus
T2 sequence (looked up): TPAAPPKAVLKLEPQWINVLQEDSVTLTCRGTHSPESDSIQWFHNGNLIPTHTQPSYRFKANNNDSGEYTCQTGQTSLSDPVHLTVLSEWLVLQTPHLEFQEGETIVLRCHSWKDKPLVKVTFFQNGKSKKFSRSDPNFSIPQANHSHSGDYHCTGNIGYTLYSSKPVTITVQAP

Row | Binder | He/Con_1a [1] | He/Con_2b [2]
1 | GpH7-A5/GpH7-B3 variant P271_06M/GpL16-k0 (antibody, human IgG1, kappa, Heterodimerized anti-glypican-3 IgG1; substitution in only one H chain; also called P271M; He Ab) heavy 1: not shown heavy 2: not shown light: DIVMTQSPLSLPVTPGEPASISCQASESLVHSNRNTYLHWYLQKPGQSPQLLIYKVSNRFSGVPDRFSGSGSGTDFTLKISRVEAEDVGVYYCSQNTHVPPTFGQGTKVEIERTVAAPSVFIFPPSDEQLKSGTASVVCLLNNFYPREAKVQWKVDNALQSGNSQESVTEQDSKDSTYSLSSTLTLSKADYEKHKVYACEVTHQGLSSPVTKSFNRGEC | 102 % of control (GpH7-A5/GpH7-B3/GpL16-k0 = 100) | 77.5 % of control (GpH7-A5/GpH7-B3/GpL16-k0 = 100)
2 | GpH7-A5/GpH7-B3 variant P271_14T/GpL16-k0 (antibody, human IgG1, kappa, Heterodimerized anti-glypican-3 IgG1; substitution in only one H chain; also called P271T; He Ab) heavy 1: not shown heavy 2: not shown light: DIVMTQSPLSLPVTPGEPASISCQASESLVHSNRNTYLHWYLQKPGQSPQLLIYKVSNRFSGVPDRFSGSGSGTDFTLKISRVEAEDVGVYYCSQNTHVPPTFGQGTKVEIERTVAAPSVFIFPPSDEQLKSGTASVVCLLNNFYPREAKVQWKVDNALQSGNSQESVTEQDSKDSTYSLSSTLTLSKADYEKHKVYACEVTHQGLSSPVTKSFNRGEC | 102 % of control (GpH7-A5/GpH7-B3/GpL16-k0 = 100) | 95.4 % of control (GpH7-A5/GpH7-B3/GpL16-k0 = 100)
3 | GpH7-A5/GpH7-B3 variant P271_13S/GpL16-k0 (antibody, human IgG1, kappa, Heterodimerized anti-glypican-3 IgG1; substitution in only one H chain; also called P271S; He Ab) heavy 1: not shown heavy 2: not shown light: DIVMTQSPLSLPVTPGEPASISCQASESLVHSNRNTYLHWYLQKPGQSPQLLIYKVSNRFSGVPDRFSGSGSGTDFTLKISRVEAEDVGVYYCSQNTHVPPTFGQGTKVEIERTVAAPSVFIFPPSDEQLKSGTASVVCLLNNFYPREAKVQWKVDNALQSGNSQESVTEQDSKDSTYSLSSTLTLSKADYEKHKVYACEVTHQGLSSPVTKSFNRGEC | 102 % of control (GpH7-A5/GpH7-B3/GpL16-k0 = 100) | 87.6 % of control (GpH7-A5/GpH7-B3/GpL16-k0 = 100)
4 | GpH7-A5/GpH7-B3 variant P271_12R/GpL16-k0 (antibody, human IgG1, kappa, Heterodimerized anti-glypican-3 IgG1; substitution in only one H chain; also called P271R; He Ab) heavy 1: not shown heavy 2: not shown light: DIVMTQSPLSLPVTPGEPASISCQASESLVHSNRNTYLHWYLQKPGQSPQLLIYKVSNRFSGVPDRFSGSGSGTDFTLKISRVEAEDVGVYYCSQNTHVPPTFGQGTKVEIERTVAAPSVFIFPPSDEQLKSGTASVVCLLNNFYPREAKVQWKVDNALQSGNSQESVTEQDSKDSTYSLSSTLTLSKADYEKHKVYACEVTHQGLSSPVTKSFNRGEC | 102 % of control (GpH7-A5/GpH7-B3/GpL16-k0 = 100) | 86.5 % of control (GpH7-A5/GpH7-B3/GpL16-k0 = 100)
5 | GpH7-A5/GpH7-B3 variant P271_16H/GpL16-k0 (antibody, human IgG1, kappa, Heterodimerized anti-glypican-3 IgG1; substitution in only one H chain; also called P271H; He Ab) heavy 1: not shown heavy 2: not shown light: DIVMTQSPLSLPVTPGEPASISCQASESLVHSNRNTYLHWYLQKPGQSPQLLIYKVSNRFSGVPDRFSGSGSGTDFTLKISRVEAEDVGVYYCSQNTHVPPTFGQGTKVEIERTVAAPSVFIFPPSDEQLKSGTASVVCLLNNFYPREAKVQWKVDNALQSGNSQESVTEQDSKDSTYSLSSTLTLSKADYEKHKVYACEVTHQGLSSPVTKSFNRGEC | 102 % of control (GpH7-A5/GpH7-B3/GpL16-k0 = 100) | 67.9 % of control (GpH7-A5/GpH7-B3/GpL16-k0 = 100)

Other lines, results leading:

Row | He/Con_1a [1] | He/Con_2b [2] | Binder
6 | 102 % of control (GpH7-A5/GpH7-B3/GpL16-k0 = 100) | 64.7 % of control (GpH7-A5/GpH7-B3/GpL16-k0 = 100) | GpH7-A5/GpH7-B3 variant Q295_04F/GpL16-k0 (antibody, human IgG1, kappa, Heterodimerized anti-glypican-3 IgG1; substitution in only one H chain; also called Q295F; He Ab) heavy 1: not shown heavy 2: not shown light: DIVMTQSPLSLPVTPGEPASISCQASESLVHSNRNTYLHWYLQKPGQSPQLLIYKVSNRFSGVPDRFSGSGSGTDFTLKISRVEAEDVGVYYCSQNTHVPPTFGQGTKVEIERTVAAPSVFIFPPSDEQLKSGTASVVCLLNNFYPREAKVQWKVDNALQSGNSQESVTEQDSKDSTYSLSSTLTLSKADYEKHKVYACEVTHQGLSSPVTKSFNRGEC
7 | 104 % of control (GpH7-A5/GpH7-B3/GpL16-k0 = 100) | 90.4 % of control (GpH7-A5/GpH7-B3/GpL16-k0 = 100) | GpH7-A5/GpH7-B3 variant Q295_06M/GpL16-k0 (antibody, human IgG1, kappa, Heterodimerized anti-glypican-3 IgG1; substitution in only one H chain; also called Q295M; He Ab) heavy 1: not shown heavy 2: not shown light: DIVMTQSPLSLPVTPGEPASISCQASESLVHSNRNTYLHWYLQKPGQSPQLLIYKVSNRFSGVPDRFSGSGSGTDFTLKISRVEAEDVGVYYCSQNTHVPPTFGQGTKVEIERTVAAPSVFIFPPSDEQLKSGTASVVCLLNNFYPREAKVQWKVDNALQSGNSQESVTEQDSKDSTYSLSSTLTLSKADYEKHKVYACEVTHQGLSSPVTKSFNRGEC
8 | 103 % of control (GpH7-A5/GpH7-B3/GpL16-k0 = 100) | 84.3 % of control (GpH7-A5/GpH7-B3/GpL16-k0 = 100) | GpH7-A5/GpH7-B3 variant Q295_07I/GpL16-k0 (antibody, human IgG1, kappa, Heterodimerized anti-glypican-3 IgG1; substitution in only one H chain; also called Q295I; He Ab) heavy 1: not shown heavy 2: not shown light: DIVMTQSPLSLPVTPGEPASISCQASESLVHSNRNTYLHWYLQKPGQSPQLLIYKVSNRFSGVPDRFSGSGSGTDFTLKISRVEAEDVGVYYCSQNTHVPPTFGQGTKVEIERTVAAPSVFIFPPSDEQLKSGTASVVCLLNNFYPREAKVQWKVDNALQSGNSQESVTEQDSKDSTYSLSSTLTLSKADYEKHKVYACEVTHQGLSSPVTKSFNRGEC
9 | 104 % of control (GpH7-A5/GpH7-B3/GpL16-k0 = 100) | 79.7 % of control (GpH7-A5/GpH7-B3/GpL16-k0 = 100) | GpH7-A5/GpH7-B3 variant Q295_02A/GpL16-k0 (antibody, human IgG1, kappa, Heterodimerized anti-glypican-3 IgG1; substitution in only one H chain; also called Q295A; He Ab) heavy 1: not shown heavy 2: not shown light: DIVMTQSPLSLPVTPGEPASISCQASESLVHSNRNTYLHWYLQKPGQSPQLLIYKVSNRFSGVPDRFSGSGSGTDFTLKISRVEAEDVGVYYCSQNTHVPPTFGQGTKVEIERTVAAPSVFIFPPSDEQLKSGTASVVCLLNNFYPREAKVQWKVDNALQSGNSQESVTEQDSKDSTYSLSSTLTLSKADYEKHKVYACEVTHQGLSSPVTKSFNRGEC
